These results are taken from PMC11009412, “Pathogenic mutations of human phosphorylation sites affect protein–protein interactions” (Nature Communications, 2024).

For the experiment, the system named is BirA*-FLAG-GATAD1 variants in Flp-In-293 cells. Kind of experiment: BioID proximity labelling of full-length GATAD1 variants (SILAC). Particulars: GATAD1 WT vs S102P, significant proteins only; for Log2_Ratio.H.L.normalized.WT_S102P_forward: forward experiment (label swap performed, sign inverted against the H/L ratio); for Log2_Ratio.H.L.normalized.WT_S102P_forward / Log2_Ratio.H.L.normalized.WT_S102P_reverse: log2 of normalized H/L ratio; for Ratio.H.L.normalized.WT_S102P_forward: forward experiment; for Log2_Ratio.H.L.normalized.WT_S102P_reverse / Ratio.H.L.normalized.WT_S102P_reverse: reverse experiment. The class given is cell-based, human. Summed up: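 Tetracycline-inducible Flp-In-293 T-REx lines expressing N-terminal BirA*-FLAG GATAD1 variants (WT, S102P, S102D, S102A) were SILAC-labelled, induced with 1 μg/mL tetracycline for 24 h and given 50 μM biotin overnight. Streptavidin-enriched proteins were trypsin-digested on-bead and analysed by LC-MS/MS. Label-swapped log2 SILAC ratios beyond ±1 defined differential proteins (n = 2).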

B1: SAP30BP (protein, UniProt Q9UHR5 1-308, looked up)
SAP30-binding protein: MAGKKNVLSSLAVYAEDSEPESDGEAGIEAVGSAAEEKGGLVSDAYGEDDFSRLGGDEDGYEEEEDENSRQSEDDDSETEKPEADDPKDNTEAEKRDPQELVASFSERVRNMSPDEIKIPPEPPGRCSNHLQDKIQKLYERKIKEGMDMNYIIQRKKEFRNPSIYEKLIQFCAIDELGTNYPKDMFDPHGWSEDSYYEALAKAQKIEMDKLEKAKKERTKIEFVTGTKKGTTTNATSTTTTTASTAVADAQKRKSKWDSAIPVTTIAQPTILTTTATLPAVVTVTTSASGSKTTVISAVGTIVKKAKQ
On to B1, for which the Log2_Ratio.H.L.normalized.WT_S102P_forward was determined as 1.673, the Ratio.H.L.normalized.WT_S102P_forward is given as 0.3135, the Log2_Ratio.H.L.normalized.WT_S102P_reverse is listed as 1.201 and the Ratio.H.L.normalized.WT_S102P_reverse was 2.2985.

B2: RANBP3 (protein, UniProt Q9H6Z4 2-567, looked up)
Ran-binding protein 3: ADLANEEKPAIAPPVFVFQKDKGQKSPAEQKNLSDSGEEPRGEAEAPHHGTGHPESAGEHALEPPAPAGASASTPPPPAPEAQLPPFPRELAGRSAGGSSPEGGEDSDREDGNYCPPVKRERTSSLTQFPPSQSEERSSGFRLKPPTLIHGQAPSAGLPSQKPKEQQRSVLRPAVLQAPQPKALSQTVPSSGTNGVSLPADCTGAVPAASPDTAAWRSPSEAADEVCALEEKEPQKNESSNASEEEACEKKDPATQQAFVFGQNLRDRVKLINESVDEADMENAGHPSADTPTATNYFLQYISSSLENSTNSADASSNKFVFGQNMSERVLSPPKLNEVSSDANRENAAAESGSESSSQEATPEKESLAESAAAYTKATARKCLLEKVEVITGEEAESNVLQMQCKLFVFDKTSQSWVERGRGLLRLNDMASTDDGTLQSRLVMRTQGSLRLILNTKLWAQMQIDKASEKSIRITAMDTEDQGVKVFLISASSKDTGQLYAALHHRILALRSRVEQEQEAKMPAPEPGAAPSNEEDDSDDDDVLAPSGATAAGAGDEGDGQTTGST
Consider B2, for which the Log2_Ratio.H.L.normalized.WT_S102P_forward was 1.029, the Ratio.H.L.normalized.WT_S102P_forward was 0.49, the Log2_Ratio.H.L.normalized.WT_S102P_reverse is 1.139 and the Ratio.H.L.normalized.WT_S102P_reverse worked out at 2.2024.

B3: ACIN1 (protein, UniProt Q9UKV3 1-1341, looked up)
Apoptotic chromatin …: MWRRKHPRTSGGTRGVLSGNRGVEYGSGRGHLGTFEGRWRKLPKMPEAVGTDPSTSRKMAELEEVTLDGKPLQALRVTDLKAALEQRGLAKSGQKSALVKRLKGALMLENLQKHSTPHAAFQPNSQIGEEMSQNSFIKQYLEKQQELLRQRLEREAREAAELEEASAESEDEMIHPEGVASLLPPDFQSSLERPELELSRHSPRKSSSISEEKGDSDDEKPRKGERRSSRVRQARAAKLSEGSQPAEEEEDQETPSRNLRVRADRNLKTEEEEEEEEEEEEDDEEEEGDDEGQKSREAPILKEFKEEGEEIPRVKPEEMMDERPKTRSQEQEVLERGGRFTRSQEEARKSHLARQQQEKEMKTTSPLEEEEREIKSSQGLKEKSKSPSPPRLTEDRKKASLVALPEQTASEEETPPPLLTKEASSPPPHPQLHSEEEIEPMEGPAPAVLIQLSPPNTDADTRELLVSQHTVQLVGGLSPLSSPSDTKAESPAEKVPEESVLPLVQKSTLADYSAQKDLEPESDRSAQPLPLKIEELALAKGITEECLKQPSLEQKEGRRASHTLLPSHRLKQSADSSSSRSSSSSSSSSRSRSRSPDSSGSRSHSPLRSKQRDVAQARTHANPRGRPKMGSRSTSESRSRSRSRSRSASSNSRKSLSPGVSRDSSTSYTETKDPSSGQEVATPPVPQLQVCEPKERTSTSSSSVQARRLSQPESAEKHVTQRLQPERGSPKKCEAEEAEPPAATQPQTSETQTSHLPESERIHHTVEEKEEVTMDTSENRPENDVPEPPMPIADQVSNDDRPEGSVEDEEKKESSLPKSFKRKISVVSATKGVPAGNSDTEGGQPGRKRRWGASTATTQKKPSISITTESLKSLIPDIKPLAGQEAVVDLHADDSRISEDETERNGDDGTHDKGLKICRTVTQVVPAEGQENGQREEEEEEKEPEAEPPVPPQVSVEVALPPPAEHEVKKVTLGDTLTRRSISQQKSGVSITIDDPVRTAQVPSPPRGKISNIVHISNLVRPFTLGQLKELLGRTGTLVEEAFWIDKIKSHCFVTYSTVEEAVATRTALHGVKWPQSNPKFLCADYAEQDELDYHRGLLVDRPSETKTEEQGIPRPLHPPPPPPVQPPQHPRAEQREQERAVREQWAEREREMERRERTRSEREWDRDKVREGPRSRSRSRDRRRKERAKSKEKKSEKKEKAQEEPPAKLLDDLFRKTKAAPCIYWLPLTDSQIVQKEAERAERAKEREKRRKEQEEEEQKEREKEAERERNRQLEREKRREHSRERDRERERERERDRGDRDRDRERDRERGRERDRRDTKRHSRSRSRSTPVRDRGGRR
Take B3: the Log2_Ratio.H.L.normalized.WT_S102P_forward was 1.249, the Ratio.H.L.normalized.WT_S102P_forward worked out at 0.4208, the Log2_Ratio.H.L.normalized.WT_S102P_reverse worked out at 1.096 and the Ratio.H.L.normalized.WT_S102P_reverse is recorded as 2.1371.

B4: HN1L (protein, UniProt Q9H910 1-190, looked up)
Jupiter microtubule …: MFQVPDSEGGRAGSRAMKPPGGESSNLFGSPEEATPSSRPNRMASNIFGPTEEPQNIPKRTNPPGGKGSGIFDESTPVQTRQHLNPPGGKTSDIFGSPVTATSRLAHPNKPKDHVFLCEGEEPKSDLKAARSIPAGAEPGEKGSARKAGPAKEQEPMPTVDSHEPRLGPRPRSHNKVLNPPGGKSSISFY
On to B4, for which the Log2_Ratio.H.L.normalized.WT_S102P_forward was 1.324, the Ratio.H.L.normalized.WT_S102P_forward is on record as 0.3994, the Log2_Ratio.H.L.normalized.WT_S102P_reverse was 1.259 and the Ratio.H.L.normalized.WT_S102P_reverse came to 2.3935.

B5: C11orf58;SMAP (protein, UniProt O00193 1-183, looked up)
Small acidic protein: MSAARESHPHGVKRSASPDDDLGSSNWEAADLGNEERKQKFLRLMGAGKKEHTGRLVIGDHKSTSHFRTGEEDKKINEELESQYQQSMDSKLSGRYRRHCGLGFSEVEDHDGEGDVAGDDDDDDDDSPDPESPDDSESDSESEKEESAEELQAAEHPDEVEDPKNKKDAKSNYKMMFVKSSGS
Take B5: the Log2_Ratio.H.L.normalized.WT_S102P_forward turned out to be 1.333, the Ratio.H.L.normalized.WT_S102P_forward was 0.3971, the Log2_Ratio.H.L.normalized.WT_S102P_reverse was found to be 1.1961 and the Ratio.H.L.normalized.WT_S102P_reverse was determined as 2.2912.
